Test results published in publication PMC6642198 (Scientific Reports, 2019).
Residue numbers refer to the chain shown, from its start. Numbers in names are those of the source.

B1: KCTD1 (full-length, residues 1-257), Q719H9 1-257 (natural protein)
chain: MSRPLITRSPASPLNNQGIPTPAQLTKSNAPVHIDVGGHMYTSSLATLTKYPESRIGRLFDGTEPIVLDSLKQHYFIDRDGQMFRYILNFLRTSKLLIPDDFKDYTLLYEEAKYFQLQPMLLEMERWKQDRETGRFSRPCECLVVRVAPDLGERITLSGDKSLIEEVFPEIGDVMCNSVNAGWNHDSTHVIRFPLNGYCHLNSVQVLERLQQRGFEIVGSCGGGVDSSQFSEYVLRRELRRTPRVPSVIRIKQEPLD
B2: KCTD1^D69E (full-length KCTD1 with the SEN-causing mutation D69E) (natural protein, human, UniProt Q719H9 1-257, looked up)
chain: B1 chain with D69E
notes: KCTD1, full-length protein, residues 1-257, disease-causing missense variant D69E; the mutation occurs in families with SEN syndrome; also called KCTD^D69E; source: E. coli BL21(DE3), purified (His-trap, TEV digestion, Superdex 200); not shown: polyHis, N-terminal, cleaved
B3: KCTD1^H33P (full-length KCTD1 with the SEN-causing mutation H33P) (natural protein, human, UniProt Q719H9 1-257, looked up)
chain: B1 chain with H33P
notes: KCTD1, full-length protein, residues 1-257, disease-causing missense variant H33P; the mutation occurs in families with SEN syndrome; also called KCTD^H33P; source: E. coli BL21(DE3), purified (His-trap, TEV digestion, Superdex 200); not shown: polyHis, N-terminal, cleaved
B4: KCTD1^H74P (full-length KCTD1 with the SEN-causing mutation H74P) (natural protein, human, UniProt Q719H9 1-257, looked up)
chain: B1 chain with H74P
notes: KCTD1, full-length protein, residues 1-257, disease-causing missense variant H74P; the mutation occurs in families with SEN syndrome; also called KCTD^H74P; source: E. coli BL21(DE3), purified (His-trap, TEV digestion, Superdex 200); not shown: polyHis, N-terminal, cleaved
B5: KCTD1^G62D (full-length KCTD1 with the SEN-causing mutation G62D) (natural protein, human, UniProt Q719H9 1-257, looked up)
chain: B1 chain with G62D
notes: KCTD1, full-length protein, residues 1-257, disease-causing missense variant G62D; the mutation occurs in families with SEN syndrome; One sentence of the modelling section prints Gly62Glu; everywhere else G62D; also called KCTD^G62D; source: E. coli BL21(DE3), purified (His-trap, TEV digestion, Superdex 200); not shown: polyHis, N-terminal, cleaved
B6: KCTD1^P20S (full-length KCTD1 with the SEN-causing mutation P20S) (natural protein, human, UniProt Q719H9 1-257, looked up)
chain: B1 chain with P20S
notes: KCTD1, full-length protein, residues 1-257, disease-causing missense variant P20S; the mutation occurs in families with SEN syndrome; also called KCTD^P20S; source: E. coli BL21(DE3), purified (His-trap, TEV digestion, Superdex 200); not shown: polyHis, N-terminal, cleaved
B7: KCTD1 BTB domain (KCTD1^BTB, residues 1-135) (domain or fragment, human, UniProt Q719H9 1-135, looked up)
chain: MSRPLITRSPASPLNNQGIPTPAQLTKSNAPVHIDVGGHMYTSSLATLTKYPESRIGRLFDGTEPIVLDSLKQHYFIDRDGQMFRYILNFLRTSKLLIPDDFKDYTLLYEEAKYFQLQPMLLEMERWKQDRETGR
notes: KCTD1, pre-BTB region and BTB domain, residues 1-135; source: E. coli BL21(DE3), purified (His-trap, TEV digestion, Superdex 200); not shown: polyHis, N-terminal, cleaved
B8: KCTD1 C-terminal domain (KCTD1^CTD, residues 134-235) (domain or fragment, human, UniProt Q719H9 134-235, looked up)
chain: GRFSRPCECLVVRVAPDLGERITLSGDKSLIEEVFPEIGDVMCNSVNAGWNHDSTHVIRFPLNGYCHLNSVQVLERLQQRGFEIVGSCGGGVDSSQFSEYVL
notes: KCTD1, C-terminal domain, residues 134-235; The sentences on expression host and on TEV removal of the tag list KCTD1, KCTD1^BTB and the point mutants but not KCTD1^CTD; source: recombinantly expressed (pETM11), purified (Superdex 200)

Assays:
[1] = molecular target: T1, KCTD1 (full-length, residues 1-257) (human), Q719H9; assay: SEC; analytical size-exclusion chromatography, Superdex 200 10/30, Tris-HCl 20 mM pH 7.8, NaCl 100 mM, glycerol 5%, CHAPS 0.01%, DTT 4 mM; column calibrated with marker proteins; number of chains from apparent over theoretical monomer molecular weight; conditions: remark: other sources report otherwise
T1 chain: B1 chain

[2] = molecular target: the molecule itself; assay: as above

Binder | binding result [2] | also measured
B1 | – | stoichiometry N [1]: 4.5
B2 | binds | –
B3 | binds | –
B4 | binds | –
B5 | binds | –
B6 | binds | –
B7 | – | stoichiometry N [2]: ~4.5
B8 | – | stoichiometry N [2]: ~4.5
